Measured values reported in patent publication US20220048967A1 (published 2022).
Numbering of substitutions follows the chain as printed. Numbered stars: 1 amine (or outer) side, 2 acyl side, 3 side chain; on linkers, the order of the positions; unused ones are H or OH. Square brackets hold non-standard residues; d marks the D form. Side chains are listed from the residue outwards. Ends that are not written are not given here. * marks the point of attachment. C20 diacid = O=C(O)CCCCCCCCCCCCCCCCCCC(=O)*; C18 diacid = O=C(O)CCCCCCCCCCCCCCCCC(=O)*; γGlu = O=C(O)[C@H](CCC(=O)[*:2])N[*:1]; AEEA = NCCOCCOCC(=O)O; Aib = CC(C)(N)C(=O)O

T1: human gastric inhibitory peptide receptor (GIPR) (human, UniProt P48546 22-466)
T1 sequence (looked up): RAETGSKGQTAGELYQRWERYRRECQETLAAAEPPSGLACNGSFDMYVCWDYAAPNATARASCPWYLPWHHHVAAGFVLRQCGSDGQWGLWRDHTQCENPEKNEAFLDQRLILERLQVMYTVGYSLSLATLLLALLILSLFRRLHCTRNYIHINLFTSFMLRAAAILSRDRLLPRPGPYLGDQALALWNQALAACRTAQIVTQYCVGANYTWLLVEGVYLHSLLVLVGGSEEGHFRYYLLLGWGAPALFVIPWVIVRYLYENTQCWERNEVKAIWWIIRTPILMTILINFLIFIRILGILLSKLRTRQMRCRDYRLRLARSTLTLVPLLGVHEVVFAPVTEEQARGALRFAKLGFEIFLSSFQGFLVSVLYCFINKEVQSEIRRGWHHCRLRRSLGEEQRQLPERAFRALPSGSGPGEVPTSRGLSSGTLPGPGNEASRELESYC

B1: Example 318 (peptide)
peptide: Y[Aib]EGTFTSDYSILLDKK([AEEA-AEEA-γGlu-C20 diacid])AQ[Aib]EFIEYLIAGGPSSG-NH2
modifications: N-terminus assumed
SMILES: CC[C@H](C)[C@H](NC(=O)[C@H](CC(C)C)NC(=O)[C@H](Cc1ccc(O)cc1)NC(=O)[C@H](CCC(=O)O)NC(=O)[C@@H](NC(=O)[C@H](Cc1ccccc1)NC(=O)[C@H](CCC(=O)O)NC(=O)C(C)(C)NC(=O)[C@H](CCC(N)=O)NC(=O)[C@H](C)NC(=O)[C@H](CCCCNC(=O)COCCOCCNC(=O)COCCOCCNC(=O)CC[C@H](NC(=O)CCCCCCCCCCCCCCCCCCC(=O)O)C(=O)O)NC(=O)[C@H](CCCCN)NC(=O)[C@H](CC(=O)O)NC(=O)[C@H](CC(C)C)NC(=O)[C@H](CC(C)C)NC(=O)[C@@H](NC(=O)[C@H](CO)NC(=O)[C@H](Cc1ccc(O)cc1)NC(=O)[C@H](CC(=O)O)NC(=O)[C@H](CO)NC(=O)[C@@H](NC(=O)[C@H](Cc1ccccc1)NC(=O)[C@@H](NC(=O)CNC(=O)[C@H](CCC(=O)O)NC(=O)C(C)(C)NC(=O)[C@@H](N)Cc1ccc(O)cc1)[C@@H](C)O)[C@@H](C)O)[C@@H](C)CC)[C@@H](C)CC)C(=O)N[C@@H](C)C(=O)NCC(=O)NCC(=O)N1CCC[C@H]1C(=O)N[C@@H](CO)C(=O)N[C@@H](CO)C(=O)NCC(N)=O
B2: Example 319 (peptide)
peptide: Y[Aib]EGTFTSDYSILLDKK([AEEA-AEEA-γGlu-C20 diacid])AQ[Aib]EFIEYLIAGGPSSGAPPPS-NH2
modifications: N-terminus assumed
SMILES: CC[C@H](C)[C@H](NC(=O)[C@H](CC(C)C)NC(=O)[C@H](Cc1ccc(O)cc1)NC(=O)[C@H](CCC(=O)O)NC(=O)[C@@H](NC(=O)[C@H](Cc1ccccc1)NC(=O)[C@H](CCC(=O)O)NC(=O)C(C)(C)NC(=O)[C@H](CCC(N)=O)NC(=O)[C@H](C)NC(=O)[C@H](CCCCNC(=O)COCCOCCNC(=O)COCCOCCNC(=O)CC[C@H](NC(=O)CCCCCCCCCCCCCCCCCCC(=O)O)C(=O)O)NC(=O)[C@H](CCCCN)NC(=O)[C@H](CC(=O)O)NC(=O)[C@H](CC(C)C)NC(=O)[C@H](CC(C)C)NC(=O)[C@@H](NC(=O)[C@H](CO)NC(=O)[C@H](Cc1ccc(O)cc1)NC(=O)[C@H](CC(=O)O)NC(=O)[C@H](CO)NC(=O)[C@@H](NC(=O)[C@H](Cc1ccccc1)NC(=O)[C@@H](NC(=O)CNC(=O)[C@H](CCC(=O)O)NC(=O)C(C)(C)NC(=O)[C@@H](N)Cc1ccc(O)cc1)[C@@H](C)O)[C@@H](C)O)[C@@H](C)CC)[C@@H](C)CC)C(=O)N[C@@H](C)C(=O)NCC(=O)NCC(=O)N1CCC[C@H]1C(=O)N[C@@H](CO)C(=O)N[C@@H](CO)C(=O)NCC(=O)N[C@@H](C)C(=O)N1CCC[C@H]1C(=O)N1CCC[C@H]1C(=O)N1CCC[C@H]1C(=O)N[C@@H](CO)C(N)=O
B3: Example 320 (peptide)
peptide: Y[Aib]EGTFTSDYSILLDKK([AEEA-AEEA-γGlu-C18 diacid])AQ[Aib]DFIEYLIEGGPSSG-NH2
modifications: N-terminus assumed
SMILES: CC[C@H](C)[C@H](NC(=O)[C@H](CC(C)C)NC(=O)[C@H](Cc1ccc(O)cc1)NC(=O)[C@H](CCC(=O)O)NC(=O)[C@@H](NC(=O)[C@H](Cc1ccccc1)NC(=O)[C@H](CC(=O)O)NC(=O)C(C)(C)NC(=O)[C@H](CCC(N)=O)NC(=O)[C@H](C)NC(=O)[C@H](CCCCNC(=O)COCCOCCNC(=O)COCCOCCNC(=O)CC[C@H](NC(=O)CCCCCCCCCCCCCCCCC(=O)O)C(=O)O)NC(=O)[C@H](CCCCN)NC(=O)[C@H](CC(=O)O)NC(=O)[C@H](CC(C)C)NC(=O)[C@H](CC(C)C)NC(=O)[C@@H](NC(=O)[C@H](CO)NC(=O)[C@H](Cc1ccc(O)cc1)NC(=O)[C@H](CC(=O)O)NC(=O)[C@H](CO)NC(=O)[C@@H](NC(=O)[C@H](Cc1ccccc1)NC(=O)[C@@H](NC(=O)CNC(=O)[C@H](CCC(=O)O)NC(=O)C(C)(C)NC(=O)[C@@H](N)Cc1ccc(O)cc1)[C@@H](C)O)[C@@H](C)O)[C@@H](C)CC)[C@@H](C)CC)C(=O)N[C@@H](CCC(=O)O)C(=O)NCC(=O)NCC(=O)N1CCC[C@H]1C(=O)N[C@@H](CO)C(=O)N[C@@H](CO)C(=O)NCC(N)=O
B4: Example 321 (peptide)
peptide: Y[Aib]EGTFTSDYSILLDKK([AEEA-AEEA-γGlu-C18 diacid])AQ[Aib]TFIEYLIEGGPSSG-NH2
modifications: N-terminus assumed
SMILES: CC[C@H](C)[C@H](NC(=O)[C@H](CC(C)C)NC(=O)[C@H](Cc1ccc(O)cc1)NC(=O)[C@H](CCC(=O)O)NC(=O)[C@@H](NC(=O)[C@H](Cc1ccccc1)NC(=O)[C@@H](NC(=O)C(C)(C)NC(=O)[C@H](CCC(N)=O)NC(=O)[C@H](C)NC(=O)[C@H](CCCCNC(=O)COCCOCCNC(=O)COCCOCCNC(=O)CC[C@H](NC(=O)CCCCCCCCCCCCCCCCC(=O)O)C(=O)O)NC(=O)[C@H](CCCCN)NC(=O)[C@H](CC(=O)O)NC(=O)[C@H](CC(C)C)NC(=O)[C@H](CC(C)C)NC(=O)[C@@H](NC(=O)[C@H](CO)NC(=O)[C@H](Cc1ccc(O)cc1)NC(=O)[C@H](CC(=O)O)NC(=O)[C@H](CO)NC(=O)[C@@H](NC(=O)[C@H](Cc1ccccc1)NC(=O)[C@@H](NC(=O)CNC(=O)[C@H](CCC(=O)O)NC(=O)C(C)(C)NC(=O)[C@@H](N)Cc1ccc(O)cc1)[C@@H](C)O)[C@@H](C)O)[C@@H](C)CC)[C@@H](C)O)[C@@H](C)CC)C(=O)N[C@@H](CCC(=O)O)C(=O)NCC(=O)NCC(=O)N1CCC[C@H]1C(=O)N[C@@H](CO)C(=O)N[C@@H](CO)C(=O)NCC(N)=O
B5: Example 322 (peptide)
peptide: Y[Aib]EGTFTSDYSILLDKK([AEEA-AEEA-γGlu-C18 diacid])AQ[Aib]HFIEYLIEGGPSSG-NH2
modifications: N-terminus assumed
SMILES: CC[C@H](C)[C@H](NC(=O)[C@H](CC(C)C)NC(=O)[C@H](Cc1ccc(O)cc1)NC(=O)[C@H](CCC(=O)O)NC(=O)[C@@H](NC(=O)[C@H](Cc1ccccc1)NC(=O)[C@H](Cc1c[nH]cn1)NC(=O)C(C)(C)NC(=O)[C@H](CCC(N)=O)NC(=O)[C@H](C)NC(=O)[C@H](CCCCNC(=O)COCCOCCNC(=O)COCCOCCNC(=O)CC[C@H](NC(=O)CCCCCCCCCCCCCCCCC(=O)O)C(=O)O)NC(=O)[C@H](CCCCN)NC(=O)[C@H](CC(=O)O)NC(=O)[C@H](CC(C)C)NC(=O)[C@H](CC(C)C)NC(=O)[C@@H](NC(=O)[C@H](CO)NC(=O)[C@H](Cc1ccc(O)cc1)NC(=O)[C@H](CC(=O)O)NC(=O)[C@H](CO)NC(=O)[C@@H](NC(=O)[C@H](Cc1ccccc1)NC(=O)[C@@H](NC(=O)CNC(=O)[C@H](CCC(=O)O)NC(=O)C(C)(C)NC(=O)[C@@H](N)Cc1ccc(O)cc1)[C@@H](C)O)[C@@H](C)O)[C@@H](C)CC)[C@@H](C)CC)C(=O)N[C@@H](CCC(=O)O)C(=O)NCC(=O)NCC(=O)N1CCC[C@H]1C(=O)N[C@@H](CO)C(=O)N[C@@H](CO)C(=O)NCC(N)=O
B6: Example 323 (peptide)
peptide: YXEGTFTSDYSIXLDEKAQXAFIEYLIEGGPSSGAPPPS
modifications: Aib2, αMeL13, (2-[2-(2-Amino-ethoxy)-ethoxy]-acetyl)2-(γ-Glu)-CO-(CH2)16-CO2H on K17, Aib20, C-terminal NH2
B7: Example 324 (peptide)
peptide: B6 peptide with E16K, E28A
modifications: Aib2, αMeL13, (2-[2-(2-Amino-ethoxy)-ethoxy]-acetyl)2-(γ-Glu)-CO-(CH2)1s-CO2H (so in the source); probably (CH2)18) on K17, Aib20, C-terminal NH2
B8: Example 325 (peptide)
peptide: B6 peptide with F6X, X13L, E16K
modifications: Aib2, αMeF(2F)6, (2-[2-(2-Amino-ethoxy)-ethoxy]-acetyl)2-(γ-Glu)-CO-(CH2)18-CO2H on K17, Aib20, C-terminal NH2
B9: Example 326 (peptide)
peptide: F[Aib]EGTFTSDYSILLDKK([AEEA-AEEA-γGlu-C20 diacid])AQ[Aib]AFIEYLIEGGPSSGAPPPS-NH2
B10: Example 327 (peptide)
peptide: B6 peptide with Y1F, E16K
modifications: Aib2, αMeL13, (2-[2-(2-Amino-ethoxy)-ethoxy]-acetyl)2-(γ-Glu)-CO-(CH2)18-CO2H on K17, Aib20, C-terminal NH2
B11: Example 328 (peptide)
peptide: B6 peptide with Y1F, E16K, G29A
modifications: Aib2, αMeL13, (2-[2-(2-Amino-ethoxy)-ethoxy]-acetyl)2-(γ-Glu)-CO-(CH2)16-CO2H on K17, Aib20, C-terminal NH2
B12: Example 329 (peptide)
peptide: B6 peptide with Y1X, F6X, X13L, E16K
modifications: D-Tyr1, Aib2, αMeF6, (2-[2-(2-Amino-ethoxy)-ethoxy]-acetyl)2-(γ-Glu)-CO-(CH2)18-CO2H on K17, Aib20, C-terminal NH2

Target: human GLP-1 receptor (GLP-1R) (human, UniProt P43220 24-463)
Experiment: cell-based or functional assay

Row | Binder | hGLP1R cAMP EC50 ratio | hGLP1R cAMP Rel EC50 [nM]
1 | B1 | 0.482 | 0.124
2 | B2 | 0.522 | 0.113
3 | B3 | 0.224 | 0.397
4 | B4 | 0.437 | 0.204
5 | B5 | 0.125 | 0.711
6 | B6 | 1.32 | 0.0597
7 | B7 | 0.798 | 0.0926
8 | B8 | 1.16 | 0.0586
9 | B9 | 1.4 | 0.0369
10 | B10 | 0.191 | 0.27
11 | B11 | 0.575 | 0.117
12 | B12 | 0.535 | 0.125

Target: T1, human gastric inhibitory peptide …
Experiment: cell-based or functional assay

Row | Binder | hGIPR cAMP EC50 ratio | hGIPR cAMP Rel EC50 [nM]
13 | B1 | 1.69 | 0.0547
14 | B2 | 2.77 | 0.054
15 | B3 | 0.241 | 0.161
16 | B4 | 0.517 | 0.0752
17 | B5 | 0.266 | 0.146
18 | B6 | 3.24 | 0.0251
19 | B7 | 2.13 | 0.0374
20 | B8 | 2.65 | 0.0301
21 | B9 | 1.5 | 0.0754
22 | B10 | 1.47 | 0.0548
23 | B11 | 0.94 | 0.0965
24 | B12 | 0.687 | 0.132
